The record followed here is the supplement of paper PMC10724198.

± gives the standard deviation of the averaged measurements.

The data set relates to Saccharomyces cerevisiae. Kind of data set: protein stability index of tFT-peptide fusion (C-terminal peptide) (PSI (0-1 scale)); higher = more stable (slower turnover). The following applies: temperature: 30 C. The protocol: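 MPS profiling in S. cerevisiae of the yeast C-terminome library: the last 12 aa of each annotated ORF are fused to the C-terminus of a sfGFP-mCherry timer, after a GGGS linker. Cells are FACS-sorted into 8 mCherry/sfGFP bins and deep-sequenced. PSI runs from 0 (unstable) to 1 (stable); wild type and das1Δ backgrounds, two technical replicates each.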

[1] abbreviates: genetic background: das1 deletion.

For SVSYASGYVTIG [MHO1 C-terminal 12 aa], the protein stability index amounted to 0.705 ± 0.034 under setting [1] and 0.64 ± 0.011 (genetic background: wild type).
With SVTAGYLPDLWR [YCH1 C-terminal 12 aa], the protein stability index is, setting by setting: under setting [1], 0.73 ± 0.0093; (genetic background: wild type) 0.728 ± 0.036.
In turn, SYEIVKNGHKNS [APC2 C-terminal 12 aa] had a protein stability index under setting [1] of 0.6772 ± 0.0007 and a protein stability index (genetic background: wild type) of 0.687 ± 0.018.
On the same counts, the results for TADIVYIDSELD [SPE1 C-terminal 12 aa] are 0.6746 ± 0.0022 and 0.694 ± 0.083.
On the same counts, the results for TANKAGNKFQLS [LDO16 C-terminal 12 aa] are 0.707 ± 0.0029 and 0.675 ± 0.019.
On to TATAPRLFDKLK [QCR6 C-terminal 12 aa], for which the protein stability index runs as follows: under setting [1], 0.7007 ± 0.007; (genetic background: wild type) 0.662 ± 0.026.
In the case of TAYFICGMVIQL [YDL041W C-terminal 12 aa], the protein stability index is, setting by setting: under setting [1], 0.349 ± 0.014; (genetic background: wild type) 0.34 ± 0.011.
Take TCEACGNRWKFS [DST1 C-terminal 12 aa]: the protein stability index runs as follows: under setting [1], 0.7329 ± 0.0019; (genetic background: wild type) 0.697 ± 0.013.
For TCEKSKCNCEKC [CRS5 C-terminal 12 aa], the protein stability index reads like this: under setting [1], 0.682 ± 0.012; (genetic background: wild type) 0.69 ± 0.082.
Take TDGSKEDVDALP [ZNF1 C-terminal 12 aa]: the protein stability index was determined as 0.688 ± 0.02 under setting [1] and 0.716 ± 0.039 (genetic background: wild type).
On to “TEISRHFIVVFV [YHR182C-A C-terminal 12 aa]”, for which the protein stability index runs as follows: under setting [1], 0.306 ± 0.0088; (genetic background: wild type) 0.351 ± 0.028.
In the case of TEKDSTTTNYRK [YJL218W C-terminal 12 aa], the protein stability index stood at 0.702 ± 0.028 under setting [1] and 0.698 ± 0.034 (genetic background: wild type).
For TEPESDTEVETS [WHI5 C-terminal 12 aa], the protein stability index runs as follows: under setting [1], 0.676 ± 0.01; (genetic background: wild type) 0.662 ± 0.013.
Consider TEPLYILRWLRS [YDR290W C-terminal 12 aa], for which the protein stability index came out at 0.678 ± 0.008 under setting [1] and 0.313 ± 0.0053 (genetic background: wild type).
On to TFAKSSRNKSKL [PCS60 C-terminal 12 aa], for which the protein stability index is 0.835 ± 0.011 under setting [1] and 0.811 ± 0.073 (genetic background: wild type).
In the case of TFVDDKLKELPQ [PTP3 C-terminal 12 aa], the protein stability index is 0.719 ± 0.042 under setting [1] and 0.655 ± 0.0034 (genetic background: wild type).
With THKQYFWKKPAK [TOS4 C-terminal 12 aa], the protein stability index runs as follows: under setting [1], 0.707 ± 0.03; (genetic background: wild type) 0.688 ± 0.058.
In turn, TIHTEVNIGIKQ [ENA1 C-terminal 12 aa] displayed a protein stability index under setting [1] of 0.7199 ± 0.0013 and a protein stability index (genetic background: wild type) of 0.736 ± 0.027.
Take TKWHDKFGKLKN [SHE2 C-terminal 12 aa]: the protein stability index reads like this: under setting [1], 0.693 ± 0.024; (genetic background: wild type) 0.6795 ± 0.0042.
For the sequence TLFDLIEKKVTA [TAL1 C-terminal 12 aa], the protein stability index is 0.67 ± 0.0085 under setting [1] and 0.652 ± 0.028 (genetic background: wild type).
On to TLKKIFSKRSIS [YCL049C C-terminal 12 aa], for which the protein stability index reads like this: under setting [1], 0.722 ± 0.02; (genetic background: wild type) 0.4651 ± 0.0019.
In the case of TLTQEEINELST [LTE1 C-terminal 12 aa], the protein stability index under setting [1] came to 0.69603 ± 0.00028 and the protein stability index (genetic background: wild type) stood at 0.689 ± 0.041.
Regarding TNGLINQFKEWM [PGI1 C-terminal 12 aa], the protein stability index is, setting by setting: under setting [1], 0.673 ± 0.015; (genetic background: wild type) 0.736 ± 0.082.
On the same counts, the results for TPLGPKPDIRPP [GTO3 C-terminal 12 aa] are 0.712 ± 0.013 and 0.693 ± 0.017.
On to “TPLPGLSWPFNE [YIL014C-A C-terminal 12 aa]”, for which the protein stability index is 0.74 ± 0.021 under setting [1] and 0.74 ± 0.061 (genetic background: wild type).
With TPVIDFSLKLAH [BNA6 C-terminal 12 aa], the protein stability index came out at 0.693 ± 0.017 under setting [1] and 0.7 ± 0.026 (genetic background: wild type).
With TQQVVDDVLSRL [LYS12 C-terminal 12 aa], the protein stability index reads like this: under setting [1], 0.738 ± 0.0082; (genetic background: wild type) 0.732 ± 0.038.
As for TSSTPLVIVDSK [HXT10 C-terminal 12 aa], the protein stability index amounted to 0.672 ± 0.013 under setting [1] and 0.713 ± 0.064 (genetic background: wild type).
For the sequence TTEKKKKKCVLL [RHO1 C-terminal 12 aa], the protein stability index was 0.684 ± 0.0099 under setting [1] and 0.6878 ± 0.0017 (genetic background: wild type).
On the same counts, the results for TTIKNIDILNRT [SMC4 C-terminal 12 aa] are 0.717 ± 0.024 and 0.694 ± 0.048.
Regarding “TTVDRTGNGAFW [YLR154C-H C-terminal 12 aa]”, the protein stability index runs as follows: under setting [1], 0.703 ± 0.017; (genetic background: wild type) 0.723 ± 0.036.
As for “TVPEFPAPIFPN [YDL159C-B C-terminal 12 aa]”, the protein stability index reads like this: under setting [1], 0.72 ± 0.019; (genetic background: wild type) 0.689 ± 0.0079.
As for TVQSKLGDHGFN [PEP7 C-terminal 12 aa], the protein stability index was 0.679 ± 0.015 under setting [1] and 0.707 ± 0.048 (genetic background: wild type).
Regarding TYKRIKQDEKTD [ALG12 C-terminal 12 aa], the protein stability index was 0.7248 ± 0.0072 under setting [1] and 0.707 ± 0.015 (genetic background: wild type).
VACNPVAMADHQ [TUS1 C-terminal 12 aa]: the protein stability index by setting is: under setting [1], 0.71 ± 0.033; (genetic background: wild type) 0.677 ± 0.019.
Turning to VADAMLDQGDVF [GDH3 C-terminal 12 aa], the protein stability index is, setting by setting: under setting [1], 0.7137 ± 0.0052; (genetic background: wild type) 0.6894 ± 0.0047.
VDDYVAAGFQTL [SUT2 C-terminal 12 aa] registered a protein stability index under setting [1] of 0.7372 ± 0.0021 and a protein stability index (genetic background: wild type) of 0.714 ± 0.018.
Regarding “VDFLSKKLLKLR [YFL041W-A C-terminal 12 aa]”, the protein stability index by setting is: under setting [1], 0.694 ± 0.0088; (genetic background: wild type) 0.708 ± 0.0078.
VDIALYLTRSQT [YGR039W C-terminal 12 aa]: the protein stability index under setting [1] was determined as 0.699 ± 0.017 and the protein stability index (genetic background: wild type) turned out to be 0.694 ± 0.011.
On the same counts, the results for VEIFVDKLIDFL [THI80 C-terminal 12 aa] are 0.674 ± 0.014 and 0.656 ± 0.027.
As to VEMAVKFGKNAF [RIB4 C-terminal 12 aa], the protein stability index runs as follows: under setting [1], 0.696 ± 0.012; (genetic background: wild type) 0.689 ± 0.059.
On to VESKFTEKIKSM [RPC19 C-terminal 12 aa], for which the protein stability index under setting [1] turned out to be 0.6704 ± 0.0024 and the protein stability index (genetic background: wild type) came out at 0.559 ± 0.027.
On the same counts, the results for VETELEMVAEKA [YEH1 C-terminal 12 aa] are 0.646 ± 0.0079 and 0.665 ± 0.061.
Take VFLYRKRIFIKL [GWT1 C-terminal 12 aa]: the protein stability index turned out to be 0.606 ± 0.021 under setting [1] and 0.485 ± 0.023 (genetic background: wild type).
VFTPFLFGELIG [ERG1 C-terminal 12 aa]: the protein stability index is, setting by setting: under setting [1], 0.718 ± 0.0073; (genetic background: wild type) 0.712 ± 0.035.
Take VHDQTNLELYYL [HUB1 C-terminal 12 aa]: the protein stability index reads like this: under setting [1], 0.708 ± 0.0075; (genetic background: wild type) 0.6895 ± 0.0058.
Take VHKDLDIKTVTL [PRO2 C-terminal 12 aa]: the protein stability index reads like this: under setting [1], 0.691 ± 0.013; (genetic background: wild type) 0.671 ± 0.0073.
As for VHKLGWSLSFDA [POR1 C-terminal 12 aa], the protein stability index reads like this: under setting [1], 0.706 ± 0.022; (genetic background: wild type) 0.6642 ± 0.0033.
As to “VILYRSVMKLSP [YOR073W-A C-terminal 12 aa]”, the protein stability index by setting is: under setting [1], 0.646 ± 0.011; (genetic background: wild type) 0.66 ± 0.017.
For the sequence VISYLLGADIHF [SMF3 C-terminal 12 aa], the protein stability index was 0.712 ± 0.013 under setting [1] and 0.7135 ± 0.0039 (genetic background: wild type).
